Laboratory results from publication PMC5680779.

Target: HIV-1 Integrase (IN) from NL4-3, Flag-tagged (HIV-1 NL4-3)
Experiment: AlphaScreen or HTRF; HTRF-based IN-IN multimerization assay with Flag-tagged and His-tagged IN from NL4-3; with the small molecule MUT-A, signal compared to the IN-IN signal without MUT-A

## HIV-1 Integrase (IN) from NL4-3, Flag-tagged (enzyme)
  maximum multimerization signal plateau with MUT-A (percent of the IN-IN signal without MUT-A): 600%
